Laboratory results as given in US20110223176A1 (AbbVie / Abbott, published 2011).
Where a chain is given by its changes, count along the chain named. Like-named read-outs stand apart in the source and are kept apart here.

T1: human BSG2 (basigin isoform 2) on the cell surface (human, UniProt P35613 140-385)
T1 sequence: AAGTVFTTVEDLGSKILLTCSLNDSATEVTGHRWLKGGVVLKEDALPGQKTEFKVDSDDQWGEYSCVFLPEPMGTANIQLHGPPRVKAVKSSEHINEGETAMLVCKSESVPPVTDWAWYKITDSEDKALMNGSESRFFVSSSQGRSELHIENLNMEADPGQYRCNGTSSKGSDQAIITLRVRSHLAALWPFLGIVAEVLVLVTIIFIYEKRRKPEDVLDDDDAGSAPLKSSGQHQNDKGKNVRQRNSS

T2: purified recombinant human BSG2 extracellular domain (human, UniProt P35613 22-325)
T2 construct: also called Human BSG2 ECD
T2 sequence: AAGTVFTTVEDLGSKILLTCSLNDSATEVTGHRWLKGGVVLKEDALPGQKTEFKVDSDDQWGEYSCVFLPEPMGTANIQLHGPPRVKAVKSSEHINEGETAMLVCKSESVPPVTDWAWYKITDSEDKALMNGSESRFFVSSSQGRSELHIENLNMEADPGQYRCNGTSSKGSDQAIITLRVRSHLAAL

B1: mouse anti-human BSG2 antibody 1F4-2C1 with mouse IgG2a isotype (antibody, V domains shown)
VH: EVKLEESGGGLVQPGGSMKLSCVASGFTFSNFWMDWVRQSPEKGLEWVAEIRLKSTNYATHYAESVKGRFTISRDDSKSSVYLQMNNLRAEDTGIYYCTATSTGYWGQGTTLTVSS
VL: SIVMTQSPKILLVSAGDRVTITCKASQSVSNDVAWYQQKPGQSPKLLIYYASNRYTGVPDRFTGSGYGTDFTFTISTVQAEDLAVYFCQQDYSSPYTFGGGTKLEIK
B2: chimeric antibody 6A11-3A3 (human IgG1 constant regions) (antibody, V domains shown)
VH: EVKLEESGGGLVQPGGSMKLSCVASGFTFSNFWMDWVRQSPEKGLEWIAGIRLKSYNYATHYAESVKGRFTISRDDSKSSVYLQMNNLRAEDTGIYYCTDWDGAYWGQGTLVTVSA
VL: DIVMTQSHKFMSTSVGDRVSITCKASQDVSTDVAWYQQKPGQSPKLLIYSASYRYTGVPDRFTGSGSGTDFTFTISSVQAEDLAVYYCQQHYSTPFTFGSGTKLEIK
B3: humanized 6A11-3A3 antibody h3A3-8 (VH.1/VL.1a) (antibody, V domains shown)
VH: EVQLVESGGGLVQPGGSLRLSCAASGFTFSNFWMDWVRQAPGKGLEWVGGIRLKSYNYATHYAESVKGRFTISRDDSKNTAYLQMNSLRAEDTAVYYCTRWDGAYWGQGTLVTVSS
VL: DIQMTQSPSSLSASVGDRVTITCKASQDVSTDVAWYQQKPGKSPKLLIYSASYRYTGVPSRFSGSGSGTDFTLTISSLQPEDIATYYCQQHYSTPFTFGQGTKLEIK
B4: humanized 6A11-3A3 antibody h3A3-5 (VH.1/VL.1) (antibody, V domains shown)
VH: B3 VH
VL: B3 VL with S43A
B5: humanized 6A11-3A3 antibody h3A3-6 (VH.1a/VL.1) (antibody, IgG1, V domains shown)
VH: B3 VH with V48I, G49A, N79S, A81V, R100D
VL: B3 VL with S43A
notes: IgG1
B6: humanized 6A11-3A3 antibody h3A3-9 (VH.1a/VL.1a) (antibody, V domains shown)
VH: B3 VH with V48I, G49A, N79S, A81V, R100D
VL: B3 VL
B7: humanized 6A11-3A3 antibody h3A3-11 (VH.1/VL.1b) (antibody, V domains shown)
VH: B3 VH
VL: B3 VL with Q3V
B8: humanized 6A11-3A3 antibody h3A3-12 (VH.1a/VL.1b) (antibody, IgG1, V domains shown)
VH: B3 VH with V48I, G49A, N79S, A81V, R100D
VL: B3 VL with Q3V
notes: IgG1
B9: mouse anti-human BSG2 monoclonal antibody SZ66-2D2-2A1 (antibody, mouse IgG2a, kappa, V domains shown)
VH: QVQLQQPGAEIVRPGASVKLSCKASGYTFTDYWMNWVKLRPGQGLEWIGIIDPSDSYASYNQKFKGKATLTVDESSSTAYMQLSSLTSEDSAVYYCARKSYYGGNYYYAMDYWGQGTSVTVSS
VL: EIVLTQSPALMAASPGEKVTITCSVSSSINSINLHWYRQKSETSPKPWIYGTSNLASGVPVRFSGSGSGTSYSLTISSMEAEDAATYYCQQWSSYPLTFGAGTKLELKR
notes: Hybridoma antibody, mouse IgG2a/kappa

Key:
[1] = biological target: T1, human BSG2 (basigin isoform 2) on the …; assay: cell-based or functional assay
[2] = biological target: T1, human BSG2 (basigin isoform 2) on the …; assay: cell-based or functional assay; remark: listed apart in the source
[3] = biological target: T1, human BSG2 (basigin isoform 2) on the …; assay: cell-based ECL (MSD) binding on cells expressing human BSG2
Protocol: Cells were plated at 25,000 cells/well in 25 μl PBS using 96 well MSD high binding plates (MSD, catalogue no. L11XB-3), and incubated at 37° C. for 1 hour. 25 μl/well of blocking solution (30% serum in PBS) was added to the plates for 30 minutes at room temperature with mild agitation. Plates were then incubated with 25 μl/well of BSG2 antibodies (10 μg/ml) diluted in assay buffer (10% serum in PBS) for 1 hour at room temperature with mild agitation, and then washed 3× with PBS. Goat anti-mouse or anti-human IgG sulfotag was added at 1 μg/ml for 1 hour with mild agitation, and plates were washed 3× with PBS. After the final wash, plates were incubated with 2×MSD surfactant-free read buffer (catalogue no. R92TD-2) and the signal was detected on a MSD SECTOR Imager 6000. Data were analyzed using Graphpad Prism software and EC₅₀ values were reported.
Select humanized variants were also tested for their functionality using ADCC and cell viability assays (described in Examples 1.6 and 1.7).

[4] = biological target: T1, human BSG2 (basigin isoform 2) on the …; assay: receptor binding assay, Eu-labeled antibody on cells expressing human BSG2
Protocol: (§1) Cell lines expressing BSG2 were harvested and washed once in assay buffer (PBS, 0.1% BSA, 0.02% Na Azide, 10 mM EDTA) and resuspended to 5×10⁶ cells per mL. Serial 1:2 dilutions of ⁺³Eu-labeled anti-BSG2 antibody stock in assay buffer were made for final concentrations ranging from 1.6×10⁻⁸-7.7×10⁻¹² M, and a 4 mg/mL solution of unlabeled anti-BSG2 antibody was also prepared. To 96 well round bottom plates, 25 μl of ⁺³Eu-labeled antibody dilutions were added to 25 μl buffer (total counts), or 25 μl of unlabeled antibody were added to 25 μl buffer (background counts). 50 μl of cells at 2.5×10⁵ cells per well were then added to all samples, mixed gently, and incubated on ice for 1 hour. Cell bound antibody was then separated from unbound antibody by transferring 20 μL of the reaction mixture to Acrowell 96 well filter plates (Pall PN 5020), centrifuged for 5 min (2200 rpm), washed 3× with 150 μL cold assay buffer, and centrifuged for 5 min. Signal was determined by incubating samples with 150 μL/well of enhancement buffer and read using Envision. The specific counts were determined by subtracting the background counts (cells+labeled antibody+excess cold antibody) from the corresponding total counts (cells+labeled antibody) for each antibody concentration. The labeled antibody concentration versus total counts was analyzed using Graphpad Prism 4 to calculate Kd and Bmax values.

[5] = biological target: T1, human BSG2 (basigin isoform 2) on the …; assay: as above; remark: listed apart in the source
Protocol: as §1
BSG2 antibody binding activities against whole cells expressing human or cynomolgus monkey BSG2 were assessed by ECL using MSD technology (described in Example 1.3) and the receptor binding assay (described in Example 1.4) and are shown in Table 11.

[6] = biological target: T2, purified recombinant human BSG2 …; assay: SPR (Biacore), mAb captured by anti-mouse Fc, BSG2 ECD injected, 25 C
Protocol: Binding of BSG2 antibodies to a purified recombinant BSG2 extracellular domain (ECD) was determined by surface plasmon resonance-based measurements with a Biacore® instrument (either a Biacore 2000, Biacore 3000, or Biacore T100; GE Healthcare, Piscataway, N.J., US). The assay format for mAb affinity analysis was Fc-based capture via immobilized anti-Fc IgG. A standard amine coupling protocol was employed to immobilize Fc-specific IgG via primary amines to the carboxy-methyl (CM) dextran surface of CMS sensorchips. For the study of mouse anti-human BSG2 mAbs, anti-mouse Fc was used as the immobilized capture reagent. An automated protocol, available on the Biacore 2000, was used to immobilize 8000-10000RU of capture reagent in all 4 flowcells of the sensorchip. Binding was recorded as a function of time and kinetic rate constants were calculated. In this assay, on-rates as fast as 10⁷M⁻¹ s⁻¹ and off-rates as slow as 10⁻⁵ s⁻¹ can be measured.
Briefly, the CM-dextran surfaces were activated by freshly prepared 1:1 […] 3-(N,N-dimethylamino)propyl-N-ethylcarbodiimide (EDC). Then the anti-Fc IgG capture reagent (20 μg/ml in 10 mM sodium acetate, pH 4.5) was applied to the surface followed by deactivation of the surface and blocking of the residual reactive sites with 1M ethanolamine (pH 8.5). The running buffer employed was PBS-PB [1×PBS (Sigma P3813), pH 7.4, 0.005% P20 surfactant, 0.1 mg/ml BSA (Sigma-A7906)] and the assay temperature was 25° C. All reagents were diluted into running buffer to the specified concentrations. Each experimental cycle consisted of the following steps: (1) anti-BSG2 mAbs at 0.5 to 1 μg/ml were captured in flowcells 2, 3 or 4 to a level of 100-120RU. All measurements were referenced against flowcell 1 which had no captured anti-BSG2 mAb; (2) human BSG2 ECD was injected through all 4 flowcells, 240 μl at 80 μl/min. After the antigen injection, dissociation was monitored for 600 seconds at 80 μl/min; and (3) the anti-Fc capture surface was regenerated with 10 mM glycine, pH 1.5.
The BSG2 antibody binding affinities were determined by the BIACORE technology as described in Example 1.2. Table 10 represents the antibody binding kinetics against human and cynomolgus monkey BSG2 extracellular domain (ECD).

[7] = biological target: T1, human BSG2 (basigin isoform 2) on the …; assay: cell-based ECL (MSD) binding on whole cells expressing human BSG2
[8] = biological target: T1, human BSG2 (basigin isoform 2) on the …; assay: flow cytometry (FACS) on HepG2 hepatocellular carcinoma cells (cell-surface BSG2)
Protocol: (§2) Stable cell lines overexpressing cell-surface BSG2 or human tumor cell lines were harvested from tissue culture flasks, washed three times and resuspended in phosphate buffered saline (PBS) containing 1% bovine serum albumin and 1 mM CaCl₂ (FACS buffer). 5×10⁵ cells were incubated with antibodies at various concentrations in FACS buffer for 60 minutes on ice. Cells were washed twice and the bound murine monoclonal antibody was detected with a goat Fab′2 anti-mouse IgM+IgG+IgA (H+L) R-phycoerythrin-conjugated antibody (Southern Biotechnology Associates, Inc., Birmingham, Ala., Catalog No. 1012-08) diluted 1:500. Following incubation on ice (4° C., 60 minutes), cells were washed three times and resuspended in FACS buffer. Fluorescence was measured using a Becton Dickinson FACSCalibur-HTS (Becton Dickinson, San Jose, Calif., US). Data were analyzed using Graphpad Prism software and EC₅₀ values were reported as the concentration of antibody to achieve 50% of maximal BSG2 antibodies binding to BSG2 expressing cells.

[9] = biological target: T1, human BSG2 (basigin isoform 2) on the …; assay: flow cytometry (FACS) on BAF3 cells expressing human BSG2
Protocol: as §2

Binder | ADCC assay (EC50 ng/ml of % specific lysis), HepG2 hepatocellular [2] [ng/mL] | Cross-linking assay (% viability, Cmax: 125 ng/ml), MiaPaCa pancreatic cells [2] [% viability] | EC50 [3] [nM] | further results
B1 | – | – | – | CDC assay (% killing at 10 µg/ml Ab), MiaPaCa-2 pancreatic cancer cells [1]: 87 % killing
B2 | 12.5 | 55.5 | – | ADCC assay (EC50 ng/ml of % specific lysis), HepG2 hepatocellular cancer cells [1]: 7.3 ng/mL
B3 | – | – | 6.9 | –
B4 | – | – | > 100 | –
B5 | 16.4 | 47.9 | 2.05 | Kd [4]: 5.2 nM
B6 | – | – | 1.35 | –
B7 | – | – | > 100 | –
B8 | 9.3 | 48.8 | 0.96 | Kd [4]: 2.3 nM
B9 | – | – | – | Kd [5]: 0.15 nM; Kd [6]: 47 nM; koff [6]: 0.019 s⁻¹; kon [6]: 410000 M⁻¹ s⁻¹; EC50 [7]: 0.3 nM; CDC assay (% killing at 10 µg/ml Ab), MiaPaCa-2 pancreatic cancer cells [1]: 84 % killing; EC50 [8]: 0.17 nM; EC50 [9]: 0.14 nM
